Here are results for seven substances from the supplement of paper PMC5998384.

The subject of data set [1] is HeLa Kyoto. Description: melting temperature (median over replicates), in situ; higher = more thermally stable.
Data set [2] relates to HeLa Kyoto. Briefly: solubility in G1/S (NP-40 vs SDS abundance) (log2 ratio); higher = more soluble. The settings on record: cell cycle stage: G1/S.
Data set [3] relates to HeLa Kyoto. Briefly: solubility change mitosis vs G1/S (difference of NP-40 vs SDS log2 ratios) (log2 ratio difference); higher = more soluble in mitosis.
The subject of data set [4] is HeLa Kyoto. Description: thermal stability score vs G1/S (z-score of summed log2 fold changes over temperatures); higher = more thermally stable than in G1/S.
Setting [5] is: cell cycle stage: early G1 (4.5 h after nocodazole release).
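Throughout, for melting temperature (median over replicates), in situ: HeLa Kyoto cells synchronized by double thymidine or nocodazole block, proteins quantified by TMT10plex mass spectrometry, three independent biological replicates.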
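Throughout, for solubility change mitosis vs G1/S (difference of NP-40 vs SDS log2 ratios): synchronized HeLa Kyoto cells (double thymidine block for G1/S, nocodazole release for mitosis), protein amounts in NP-40 versus SDS lysates quantified by mass spectrometry, three biological replicates.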
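Throughout, for solubility in G1/S (NP-40 vs SDS abundance): HeLa Kyoto cells arrested at G1/S by double thymidine block, proteins quantified by TMT10plex mass spectrometry in mild NP-40 versus SDS extracts, three biological replicates.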
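Throughout, for thermal stability score vs G1/S (z-score of summed log2 fold changes over temperatures): synchronized HeLa Kyoto cells, proteins quantified by TMT10plex mass spectrometry, three biological replicates, mitosis taken 0.5 h after nocodazole release, G1/S directly after double thymidine block.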

As for “MLLLAAAFLVAFVLLLYMVSPLISPKPLALPGAHVVVTGGSSGIGKCIAIECYKQGAFITLVARNEDKLLQAKKEIEMHSINDKQVVLCISVDVSQDYNQVENVIKQAQEKLGPVDMLVNCAGMAVSGKFEDLEVSTFERLMSINYLGSVYPSRAVITTMKERRVGRIVFVSSQAGQLGLFGFTAYSASKFAIRGLAEALQMEVKPYNVYITVAYPPDTDTPGFAEENRTKPLETRLISETTSVCKPEQVAKQIVKDAIQGNFNSSLGSDGYMLSALTCGMAPVTSITEGLQQVVTMGLFRTIALFYLGSFDSIVRRCMMQREKSENADKTA [KDSR]”, the melting temperature was 60 °C in the data set with HeLa Kyoto [1] (cell cycle stage: G1/S) and 57.9 °C in the data set with HeLa Kyoto [1] (cell cycle stage: mitosis). Also, the “solubility in G1/S (log2)” value with HeLa Kyoto [2] is -0.701. Moreover, the “solubility change mitosis (log2)” value in the data set on HeLa Kyoto [3] was -0.0925. In addition, the thermal stability score was -2.49 with HeLa Kyoto [4] (setting [5]) and -3.38 with HeLa Kyoto [4] (cell cycle stage: mitosis).
On to “MLLPLLLLLPMCWAVEVKRPRGVSLTNHHFYDESKPFTCLDGSATIPFDQVNDDYCDCKDGSDEPGTAACPNGSFHCTNTGYKPLYIPSNRVNDGVCDCCDGTDEYNSGVICENTCKEKGRKERESLQQMAEVTREGFRLKKILIEDWKKAREEKQKKLIELQAGKKSLEDQVEMLRTVKEEAEKPEREAKEQHQKLWEEQLAAAKAQQEQELAADAFKELDDDMDGTVSVTELQTHPELDTDGDGALSEAEAQALLSGDTQTDATSFYDRVWAAIRDKYRSEALPTDLPAPSAPDLTEPKEEQPPVPSSPTEEEEEEEEEEEEEAEEEEEEEDSEEAPPPLSPPQPASPAEEDKMPPYDEQTQAFIDAAQEARNKFEEAERSLKDMEESIRNLEQEISFDFGPNGEFAYLYSQCYELTTNEYVYRLCPFKLVSQKPKLGGSPTSLGTWGSWIGPDHDKFSAMKYEQGTGCWQGPNRSTTVRLLCGKETMVTSTTEPSRCEYLMELMTPAACPEPPPEAPTEDDHDEL [PRKCSH]”, for which the melting temperature came to 55 °C in the data set with HeLa Kyoto [1] (cell cycle stage: G1/S) and 57.4 °C in the data set on HeLa Kyoto [1] (cell cycle stage: mitosis). Moreover, the “solubility in G1/S (log2)” value in the data set on HeLa Kyoto [2] worked out at 0.337. Moreover, the “solubility change mitosis (log2)” value in the data set on HeLa Kyoto [3] is -0.0303. The thermal stability score came out at 0.00878 with HeLa Kyoto [4] (setting [5]) and 0.443 in the data set on HeLa Kyoto [4] (cell cycle stage: mitosis).
With “MLLSLVLHTYSMRYLLPSVVLLGTAPTYVLAWGVWRLLSAFLPARFYQALDDRLYCVYQSMVLFFFENYTGVQILLYGDLPKNKENIIYLANHQSTVDWIVADILAIRQNALGHVRYVLKEGLKWLPLYGCYFAQHGGIYVKRSAKFNEKEMRNKLQSYVDAGTPMYLVIFPEGTRYNPEQTKVLSASQAFAAQRGLAVLKHVLTPRIKATHVAFDCMKNYLDAIYDVTVVYEGKDDGGQRRESPTMTEFLCKECPKIHIHIDRIDKKDVPEEQEHMRRWLHERFEIKDKMLIEFYESPDPERRKRFPGKSVNSKLSIKKTLPSMLILSGLTAGMLMTDAGRKLYVNTWIYGTLLGCLWVTIKA [AGPAT5]”, the figures for the melting temperature in the data set with HeLa Kyoto [1] (cell cycle stage: G1/S) and in the data set with HeLa Kyoto [1] (cell cycle stage: mitosis) were 52.1 °C and 52.6 °C, respectively. Moreover, the “solubility in G1/S (log2)” value in the data set on HeLa Kyoto [2] is -0.125. Besides, in the data set on HeLa Kyoto [3], the “solubility change mitosis (log2)” value was -0.0679. In addition, the thermal stability score with HeLa Kyoto [4] (setting [5]) is 0.0279; in the data set on HeLa Kyoto [4] (cell cycle stage: mitosis) it was -1.01.
MLLT4: the melting temperature worked out at 50.9 °C in the data set on HeLa Kyoto [1] (cell cycle stage: G1/S) and 50.3 °C in the data set with HeLa Kyoto [1] (cell cycle stage: mitosis). Besides, the “solubility in G1/S (log2)” value in the data set on HeLa Kyoto [2] is -0.184. Further, in the data set with HeLa Kyoto [3], the “solubility change mitosis (log2)” value worked out at 0.00908. In addition, the figures for the thermal stability score in the data set on HeLa Kyoto [4] (setting [5]) and in the data set with HeLa Kyoto [4] (cell cycle stage: mitosis) were -0.182 and -0.125, respectively.
Consider “MLPAALLRRPGLGRLVRHARAYAEAAAAPAAASGPNQMSFTFASPTQVFFNGANVRQVDVPTLTGAFGILAAHVPTLQVLRPGLVVVHAEDGTTSKYFVSSGSIAVNADSSVQLLAEEAVTLDMLDLGAAKANLEKAQAELVGTADEATRAEIQIRIEANEALVKALE [ATP5D]”, for which the figures for the melting temperature with HeLa Kyoto [1] (cell cycle stage: G1/S) and in the data set with HeLa Kyoto [1] (cell cycle stage: mitosis) were 55.7 °C and 54.5 °C, respectively. In the data set on HeLa Kyoto [2], the “solubility in G1/S (log2)” value is 0.603. For the same substance, the “solubility change mitosis (log2)” value in the data set on HeLa Kyoto [3] is -0.0082. In addition, the thermal stability score in the data set with HeLa Kyoto [4] (setting [5]) was -2.35; with HeLa Kyoto [4] (cell cycle stage: mitosis), -1.13.
For the substance “MLPLLRCVPRVLGSSVAGLRAAAPASPFRQLLQPAPRLCTRPFGLLSVRAGSERRPGLLRPRGPCACGCGCGSLHTDGDKAFVDFLSDEIKEERKIQKHKTLPKMSGGWELELNGTEAKLVRKVAGEKITVTFNINNSIPPTFDGEEEPSQGQKVEEQEPELTSTPNFVVEVIKNDDGKKALVLDCHYPEDEVGQEDEAESDIFSIREVSFQSTGESEWKDTNYTLNTDSLDWALYDHLMDFLADRGVDNTFADELVELSTALEHQEYITFLEDLKSFVKSQ [C1QBP]”, the melting temperature with HeLa Kyoto [1] (cell cycle stage: G1/S) was 52.6 °C; in the data set with HeLa Kyoto [1] (cell cycle stage: mitosis) it was 52 °C. Moreover, the “solubility in G1/S (log2)” value with HeLa Kyoto [2] came out at 0.515. Besides, the “solubility change mitosis (log2)” value in the data set on HeLa Kyoto [3] turned out to be 0.179. For the same substance, the thermal stability score in the data set on HeLa Kyoto [4] (setting [5]) is -1.11; in the data set with HeLa Kyoto [4] (cell cycle stage: mitosis), -3.14.
On to “MLPLSLLKTAQNHPMLVELKNGETYNGHLVSCDNWMNINLREVICTSRDGDKFWRMPECYIRGSTIKYLRIPDEIIDMVKEEVVAKGRGRGGLQQQKQQKGRGMGGAGRGVFGGRGRGGIPGTGRGQPEKKPGRQAGKQ [LSM4]”, for which the melting temperature in the data set with HeLa Kyoto [1] (cell cycle stage: G1/S) amounted to 58.1 °C; with HeLa Kyoto [1] (cell cycle stage: mitosis), 54.6 °C. For the same substance, the “solubility in G1/S (log2)” value with HeLa Kyoto [2] is 0.0844. In addition, the “solubility change mitosis (log2)” value in the data set on HeLa Kyoto [3] was 0.187. The thermal stability score was -3.84 in the data set with HeLa Kyoto [4] (setting [5]) and -4.06 in the data set with HeLa Kyoto [4] (cell cycle stage: mitosis).
